From the RNAGym collection of RNA variant scans (doi:10.7554/elife.80360) come the findings set out here.

The labels stand for the following.
B1: Twister Ribozyme (parent)
chain: AACACUGCCAAUGCCGGUCCCAAGCCCGGAUAAAAGUGGAGGGGGCGG

The data set covers variants of B1. As to the kind of experiment: self-cleavage, relative activity (ratio to wild type); higher = more cleavage; co-transcriptional.
With A1C G39A, the self-cleavage amounted to 0.162.
C15U U18C: the self-cleavage was found to be 0.396.
With G7U G44C, the self-cleavage worked out at 0.0951.
Turning to A1G G38A, the self-cleavage was determined as 0.432.
Take U37G G42A: the self-cleavage was found to be 0.171.
Regarding A10G C14A, the self-cleavage was found to be 0.975.
In the case of A2G A4G, the self-cleavage came to 0.212.
As for A22C G43A, the self-cleavage amounted to 0.183.
With A22U A40G the figure was 0.734.
As to G36U G45U, the self-cleavage was 0.315.
With C9G A10U the figure was 0.859.
Take C8A G48C: the self-cleavage was 0.346.
In the case of G24C G44U, the self-cleavage amounted to 0.0952.
Consider C20A C21A, for which the self-cleavage stood at 0.0664.
For the variant G17A A32U, the self-cleavage was found to be 0.476.
For C5G G28A, the self-cleavage was 0.354.
Regarding G24A G45C, the self-cleavage is 0.0846.
Turning to U31A C46U, the self-cleavage is 0.582.
As for G17U A35U, the self-cleavage is 0.372.
With U12A G28U the figure was 1.06.
As to U37A G39U, the self-cleavage was 0.159.
For the variant C5G G7U, the self-cleavage stood at 0.0648.
With G38C G48A the figure was 0.974.
Turning to A10C G36A, the self-cleavage came to 0.794.
As to A2G G41U, the self-cleavage was found to be 0.0697.
As for A2C G43U, the self-cleavage worked out at 0.0462.
Consider G17A G28C, for which the self-cleavage came out at 0.393.
With C5G A10C, the self-cleavage turned out to be 0.768.
Take A40C G41A: the self-cleavage is 0.115.
For A11U A33G, the self-cleavage is 0.839.
Turning to G28C G41A, the self-cleavage is 0.408.
With U31G A34G the figure was 0.894.
Take C27U G28U: the self-cleavage worked out at 0.501.
For the variant A2C C19A, the self-cleavage was 0.0459.
With U18C G24U the figure was 0.079.
A33U G43C: the self-cleavage was 0.101.
In the case of A35G G43A, the self-cleavage was found to be 0.152.
As to C20A G29U, the self-cleavage turned out to be 0.103.
Take A11U C21A: the self-cleavage is 0.114.
As for C21U A33U, the self-cleavage came to 0.0831.
As for U37C G42U, the self-cleavage was 0.127.
For the variant C3G C9G, the self-cleavage stood at 0.139.
For A4U G17C, the self-cleavage came out at 0.0361.
U12A C14G: the self-cleavage worked out at 0.0875.
In the case of U6A C15A, the self-cleavage turned out to be 0.358.
Turning to C5G C15U, the self-cleavage amounted to 0.467.
With A2C G41C, the self-cleavage was 0.0702.
With A11G G24U the figure was 0.143; with C14A C27G, 0.0739; with G17C A40G, 0.0717.
For the variant A11U G28U, the self-cleavage turned out to be 0.968.
For the variant A10G U31C, the self-cleavage was found to be 0.817.
The figure for C26A A32U is 0.405.
As to C9A C46G, the self-cleavage was 0.59.
With U6G C19U, the self-cleavage stood at 0.264.
G16U A35C: the self-cleavage was determined as 0.961.
For G17A G43A, the self-cleavage turned out to be 0.156.
Take A23C U31A: the self-cleavage stood at 0.363.
On to C3A C46A, for which the self-cleavage amounted to 0.2.
On to C9G G43U, for which the self-cleavage amounted to 0.134.
In the case of A11G G44C, the self-cleavage came to 0.784.
Consider C27A A30U, for which the self-cleavage was found to be 0.707.
The figure for A33G G42U is 0.17; for C26U G48C it is 0.301; for G13C U18G it is 0.0609.
On to C21G G41U, for which the self-cleavage came out at 0.32.
For A10C G17U, the self-cleavage was determined as 0.408.
In the case of A11U G47A, the self-cleavage was 0.937.
For the variant G42U G47A, the self-cleavage came out at 0.242.
As to U18A U31G, the self-cleavage was determined as 0.644.
As to U18A U31C, the self-cleavage came to 0.568.
Regarding A22G G42C, the self-cleavage is 0.0934.
For the variant A11G G29U, the self-cleavage was 0.762.
As for A1U G28C, the self-cleavage amounted to 0.0644.
Consider A4U G47C, for which the self-cleavage stood at 0.111.
With C19G G41A, the self-cleavage amounted to 0.113.
The figure for G13U G36U is 0.107; for A40U C46A it is 0.146.
G41C G43C: the self-cleavage amounted to 0.148.
With C25G G29U, the self-cleavage stood at 0.651.
Turning to C3G U37A, the self-cleavage was 0.421.
Take G29U A34U: the self-cleavage is 0.666.
With G17U A23C, the self-cleavage was found to be 0.0677.
Turning to C25U A34C, the self-cleavage is 0.0649.
In the case of C25G G39A, the self-cleavage is 0.101.
Consider U18C C46G, for which the self-cleavage was determined as 0.477.
With U6C A22C the figure was 0.691.
With G16A A30G, the self-cleavage stood at 0.958.
In the case of A22G C26U, the self-cleavage amounted to 0.101.
As to G16A G36C, the self-cleavage came out at 0.133.
With G17C A30U, the self-cleavage worked out at 0.143.
G29U A40C: the self-cleavage came to 0.208.
On to U6A C8G, for which the self-cleavage was determined as 0.106.
In the case of A30U G39U, the self-cleavage is 0.212.
In the case of A1U A4U, the self-cleavage was found to be 0.0259.
For the variant U12C A40U, the self-cleavage was 0.144.
In the case of C46G G48C, the self-cleavage was found to be 1.55.
On to A10G A23U, for which the self-cleavage came to 0.92.
For the variant C27A A32G, the self-cleavage was 0.483.
In the case of A11C G43C, the self-cleavage is 0.159.
Turning to C8U C26A, the self-cleavage is 0.117.
Take A23G C46A: the self-cleavage amounted to 0.328.
For U6C G45C, the self-cleavage was determined as 0.206.
In the case of U6C U31A, the self-cleavage was 0.581.
Regarding C14A G17A, the self-cleavage was determined as 0.457.
In the case of C14U G47C, the self-cleavage was found to be 0.616.
For the variant U6G C15U, the self-cleavage was determined as 0.569.
In the case of A2G A34C, the self-cleavage was found to be 0.151.
For the variant C8U G28U, the self-cleavage turned out to be 0.467.
As for U12G A32U, the self-cleavage was 0.958.
Regarding C20A A35U, the self-cleavage worked out at 0.151.
Regarding C15U G47U, the self-cleavage was 0.8.
In the case of C20U G45U, the self-cleavage stood at 0.802.
With G7C G24C the figure was 0.059; with C15G A23U, 0.06; with C14U G28U, 1.08.
The figure for U18A A35C is 0.445; for C3U A23U it is 0.194.
With A2U G24A the figure was 0.112; with G17U G39U, 0.108.
For C14U U18G, the self-cleavage was determined as 0.0637.
In the case of C8A A30C, the self-cleavage stood at 0.147.
For C8U G29U, the self-cleavage came to 0.577.
With G28A G45C, the self-cleavage was 0.185.
The figure for A4C G42U is 0.0422; for U18A G38A it is 0.229; for A30U C46G it is 0.931.
With U37A C46G, the self-cleavage came out at 0.748.
Regarding A4U C46G, the self-cleavage turned out to be 0.105.
Regarding C19A A34U, the self-cleavage came to 0.116.
Take U6G C26U: the self-cleavage was found to be 0.0975.
Take A22G A23U: the self-cleavage came out at 0.0557.
As for G7A G16U, the self-cleavage was 0.161.
With A23G U37A, the self-cleavage came out at 0.111.
The figure for C26G is 0.449; for G16C C46U it is 0.78; for G16U A33U it is 0.88.
With C5G C14A the figure was 0.557; with C26U G44A, 0.537; with C3G G43U, 0.124.
With A30C C46G the figure was 0.647; with C19G A23C, 0.0786; with A4G U31A, 0.604.
A1C C5U: the self-cleavage was determined as 0.277.
As to U12G C20G, the self-cleavage stood at 0.249.
With U31G G45C the figure was 0.653; with C14G C15A, 0.644; with A35G G38C, 0.632.
As to G41U G43C, the self-cleavage is 0.135.
On to C14A G24A, for which the self-cleavage was 0.18.
Regarding A4U C21U, the self-cleavage worked out at 0.0656.
As to C3G C20A, the self-cleavage was found to be 0.0892.
As for C14G G17U, the self-cleavage was determined as 0.101.
For the variant A2G C8G, the self-cleavage came to 0.0347.
G16C A33U: the self-cleavage is 0.359.
For C3A A22G, the self-cleavage stood at 0.0923.
For C3A A22C, the self-cleavage came out at 0.115.
The figure for G38U C46U is 0.864; for G7A C20A it is 0.0724; for G7A A40G it is 0.157.
Regarding C15A G44C, the self-cleavage turned out to be 0.57.
For the variant A34U A40U, the self-cleavage came to 0.141.
With C14G G48A the figure was 0.0949; with G17C U18G, 0.0748; with G28C A34G, 0.491.
As for A40C G48C, the self-cleavage came to 0.343.
In the case of C3A G47A, the self-cleavage was 0.245.
